Measurements: the supplement of paper PMC6757056
± gives the standard deviation of the averaged measurements.

B1: library; a variant is named by its letters at N, in order (parent)
chain: GCUGUCACCGAGAAACUGUGAAGUAUAUCUUAAACCUGGGCACUUAAAAGAUAUAUGGAGUUAGUAGUGCAACCUGCUCGGUCUGAUGAGUCCNNNNNNGGACGAAACAGC

Key:
cyclic di-GMP [1] = variants of: B1; experiment: FACS-Seq fitted mean relative fluorescence mCherry/BFP without ligand (log10 relative fluorescence); HEK293T; ligand: cyclic di-GMP (c-di-GMP-II aptamer); higher = higher reporter protein expression; conditions: ligand present: no
Summary of the method: (§1)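 Lentivirally transduced HEK293T libraries carried an mCherry reporter with the ribozyme switch and an EF1α-BFP marker. Transduced cells were enriched, then incubated with or without ligand for 48 h and sorted into 6 bins by mCherry/BFP. Genomic DNA from each bin was PCR-amplified, barcoded and sequenced on MiSeq. Fluorescence was the fitted normal mean of log10(mCherry/BFP) bin counts, scaled to five spiked-in control ribozymes.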

cyclic di-GMP [2] = variants of: B1; experiment: normalized RNA/DNA level without ligand (relative to sTRSVctl = 100) (log10 (% of sTRSVctl)); HEK293T; ligand: cyclic di-GMP (c-di-GMP-II aptamer); higher = less ribozyme self-cleavage, higher mRNA level; conditions: reporter: mCherry (pCS4076), ligand present: no
Summary of the method: (§2)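 Ribozyme switch library plasmids linked to reporters were introduced into HEK293T cells at 4 µg per 6-well well, with ligand, if any, added 1 h before. Total RNA was extracted with EDTA 72 h later, reverse-transcribed, amplified, barcoded and sequenced. RNA level was computed from RNA over DNA reads relative to a spiked-in non-cleaving sequence or the top sequences, then scaled and log-transformed. The top set was 25 sequences, values were ×100 and log10, and the cutoff was ≥100 DNA reads.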

cyclic di-GMP [3] = variants of: B1; experiment: FACS-Seq fitted mean relative fluorescence mCherry/BFP with ligand (log10 relative fluorescence); HEK293T; ligand: cyclic di-GMP (c-di-GMP-II aptamer); ligand concentration (+) FACS-Seq: 1 mM; higher = higher reporter protein expression; conditions: ligand present: yes
Summary of the method: as §1

cyclic di-GMP [4] = variants of: B1; experiment: normalized RNA/DNA level with ligand (relative to sTRSVctl = 100) (log10 (% of sTRSVctl)); HEK293T; ligand: cyclic di-GMP (c-di-GMP-II aptamer); ligand concentration (+) RNA-Seq: 1 mM; higher = less ribozyme self-cleavage, higher mRNA level; conditions: reporter: mCherry (pCS4076), ligand present: yes
Summary of the method: as §2

Row | Variant | FACS-Seq fitted mean (log10) (cyclic di-GMP [1]) | normalized RNA/DNA level without ligand (log10) (cyclic di-GMP [2]) | FACS-Seq fitted mean (log10) (cyclic di-GMP [3]) | normalized RNA/DNA level with ligand (log10) (cyclic di-GMP [4])
1 | CGGCCA | -0.425 ± 0.033 | 1.57 ± 0.099 | -0.137 ± 0.0032 | 1.73 ± 0.11
2 | AGAGGA | -0.441 ± 0.0074 | 1.4 ± 0.11 | -0.212 ± 0.025 | 1.56 ± 0.11
3 | AGCUCG | -0.0835 ± 0.12 | 1.74 ± 0.095 | 0.217 ± 0.076 | 1.88 ± 0.039
4 | CGCGUA | -0.52 ± 0.06 | 1.45 ± 0.16 | -0.224 ± 0.062 | 1.638 ± 0.011
5 | CGGACA | -0.421 ± 0.083 | 1.4 ± 0.13 | -0.265 ± 0.047 | 1.58 ± 0.085
6 | CGGACU | -0.791 ± 0.13 | 1.48 ± 0.14 | -0.611 ± 0.11 | 1.64 ± 0.11
7 | CGGACG | -1.09 ± 0.056 | 1.77 ± 0.072 | -1.17 ± 0.31 | 1.87 ± 0.11
8 | AGAUGC | -0.7631 ± 0.0076 | 1.66 ± 0.056 | -0.47 ± 0.029 | 1.77 ± 0.12
9 | AGAUGA | -0.545 ± 0.04 | 1.4 ± 0.13 | -0.336 ± 0.063 | 1.61 ± 0.14
10 | GCUUCU | -0.15612 ± 8.5e-05 | 1.74 ± 0.019 | 0.0598 ± 0.018 | 1.87 ± 0.11
11 | GCUUCA | -0.32 ± 0.093 | 1.668 ± 0.013 | 0.00326 ± 0.00018 | 1.81 ± 0.11
12 | CGCUCU | -0.865 ± 0.06 | 1.54 ± 0.049 | -0.64 ± 0.039 | 1.73 ± 0.1
13 | UGAUUU | 0.198 ± 0.26 | 1.69 ± 0.047 | 0.343 ± 0.1 | 1.86 ± 0.16
14 | CGACGA | -0.45 ± 0.042 | 1.5 ± 0.094 | -0.105 ± 0.043 | 1.71 ± 0.071
15 | CGCAUG | -0.455 ± 0.031 | 1.627 ± 0.0082 | -0.162 ± 0.14 | 1.8 ± 0.12
16 | CGCAUA | -0.777 ± 0.12 | 1.29 ± 0.082 | -0.5758 ± 0.0012 | 1.52 ± 0.17
17 | UGACGC | -0.22 ± 0.01 | 1.73 ± 0.027 | 0.123 ± 0.016 | 1.84 ± 0.17
18 | AGAUUA | -0.549 ± 0.084 | 1.49 ± 0.078 | -0.245 ± 0.019 | 1.69 ± 0.15

Row | Variant | FACS-Seq fitted mean (log10) (cyclic di-GMP [1]) | normalized RNA/DNA level without ligand (log10) (cyclic di-GMP [2]) | FACS-Seq fitted mean (log10) (cyclic di-GMP [3]) | normalized RNA/DNA level with ligand (log10) (cyclic di-GMP [4])
19 | ACUUAG | -0.25 ± 0.093 | 1.59 ± 0.024 | 0.0154 ± 0.058 | 1.75 ± 0.096
20 | AGAAAC | 0.0659 ± 0.072 | 1.617 ± 0.0019 | 0.343 ± 0.052 | 1.8 ± 0.12
21 | AGAAAG | -0.223 ± 0.077 | 1.5 ± 0.058 | 0.0417 ± 0.031 | 1.69 ± 0.1
22 | AGAAAA | -0.765 ± 0.013 | 1.42 ± 0.084 | -0.587 ± 0.043 | 1.61 ± 0.089
23 | AGCACU | 0.129 ± 0.16 | 1.7 ± 0.023 | 0.4 ± 0.012 | 1.82 ± 0.12
24 | AGCACG | -0.192 ± 0.0049 | 1.61 ± 0.036 | 0.065 ± 0.026 | 1.77 ± 0.13
25 | AGCUGC | -0.105 ± 0.077 | 1.74 ± 0.044 | 0.255 ± 0.092 | 1.87 ± 0.14
26 | AGCAUG | -0.472 ± 0.038 | 1.53 ± 0.031 | -0.236 ± 0.053 | 1.71 ± 0.055
27 | UGCUUU | 0.0721 ± 0.19 | 1.73 ± 0.025 | 0.309 ± 0.091 | 1.87 ± 0.11
28 | CGAAGA | -0.38091 ± 0.00015 | 1.37 ± 0.096 | -0.0195 ± 0.04 | 1.65 ± 0.075
29 | CGGCUA | -0.523 ± 0.084 | 1.33 ± 0.088 | -0.355 ± 0.014 | 1.46 ± 0.18
30 | CGCUGA | -0.177 ± 0.072 | 1.53 ± 0.057 | 0.0499 ± 0.0086 | 1.72 ± 0.067
31 | CGCUGU | 0.3 ± 0.092 | 1.776 ± 0.0024 | 0.433 ± 0.014 | 1.9 ± 0.13
32 | ACUUUU | -0.0638 ± 0.052 | 1.6 ± 0.053 | 0.272 ± 0.091 | 1.8 ± 0.095
33 | ACUUUA | -1.11 ± 0.037 | 1.59 ± 0.044 | -0.989 ± 0.12 | 1.76 ± 0.067
34 | AGCCUA | -0.0368 ± 0.15 | 1.62 ± 0.011 | 0.288 ± 0.026 | 1.8 ± 0.15
35 | AGCCUU | 0.0156 ± 0.081 | 1.712 ± 0.003 | 0.33 ± 0.038 | 1.85 ± 0.084
36 | GGCGAG | -0.757 ± 0.036 | 1.5556 ± 0.00075 | -0.498 ± 0.0053 | 1.68 ± 0.14
